Experimental findings from the RNAGym collection of RNA variant scans (doi:10.1073/pnas.2313332121) are described below.

Sequences and labels used below:
B1: TPR 5TU (parent)
chain: GGAUCUUCUCGAUCUAACAAAAAAGACAAAUCUGCCACAAAGCUUGAGAGCAUCUUCGGAUGCAGAGGCGGCAGCCUUCGGUGGCGCGAUAGCGCCAACGUUCUCAACUAUGACACGCAAAACGCGUGCUCCGUUGAAUGGAGUUUAUCAUG

This sample holds only a part of the variants without activity.

In this series the parent is B1. The experiment in a line: polymerase ribozyme fitness, log enrichment relative to wild type (log ratio); higher = more active; in vitro selection for triplet polymerase activity. The method, boiled down: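 Input and output libraries were sequenced on Illumina after a single in vitro selection round, run in triplicate on PCR-built, transcribed mutant libraries of each subunit of a heterodimeric triplet polymerase ribozyme. Selection annealed libraries to a biotinylated primer, the partner subunit and triplets, incubated them frozen at −7 °C, then gel-excised extended constructs for streptavidin-bead capture and RT-PCR. Genotypes with ≥10 input reads and ≥1 read per output were kept. Fitness is the logarithm, taken in base 2, of genotype enrichment divided by wild-type enrichment, using inverse-variance-weighted replicate averages.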
For GGAUCUUCUCGAUCUAACAAAAAAGACAAAUCUGCCACAAAGCUUGAGAGCAUCGUCGGAUGCAGAGUCGGCAGCCUUCGGUGGCGCGAUAGCGCCAACGUUCUCAACUAUGACACGCAAAACGCGUGCUCCGUUGAAUGGAGUUUAUCAUG [U55G G68U], the “polymerase ribozyme fitness (log ratio)” value was -3.91.
As for GGAUCUUCUCGAUCUAACAAAAAAGACAAAUCUGCCACAAAGCUUGAGAGCAUCUUCGGAUGCAGAGGCGGCAGCCUUCGGUGGCGCUAUAGCGCCAACGUUCUCAACUAUGACACGCAACACGCGUGCUCCGUUGAAUGGAGUUUAUCAUG [G88U A121C], the figure is no more than -4.2; as for GGAUCUUCUCGAUCUAACAAAAAAGACAAAUCUGCCACAAAGCUUGAGAGCGUCUUAGGAUGCAGGGCCGGCAGCCUUCGGUGGCGCGAUAGUGCCAACGGUCUCAACUAUUACACGCAAAACGCGUGCUCCGUUGAAUCGAGUAUAUCAUG [A52G C57A A66G G68C C93U U101G G112U G140C U145A], no more than -4.2.
For the variant GGAUCUUCUCGAUCUAACAAAAAAGACAAAUCUGCCACAAAGCUAGAGGGCAUCUUCGGAUGCAGAGGCGGCAGCCUUCGGUGUCGCGAUAGCGCCAACGUUCUCAACUAUGACGCGCAGAACGCGUGCUCCGUUGAAUGGAGUUUAUCAUG [U45A A49G G84U A115G A120G], the “polymerase ribozyme fitness (log ratio)” value is no more than -4.2.
The result for GGAUCUUCUCGAUCUAACAAAUAAGACAAAUCUGCCACAAAGCUUGAGAGCAUCUACGGAUGCAGAGGCGGCAGCCUUCGGUGGCGCGAUAGCGCCAACGUUCUCAACUAUGACACGCAAAACGCGUGCUCCGUUGAAUGGAGUUUAUCAUG [A22U U56A] reads -0.239.
As for GGAUCUUCUCGAUCUAACAAAAAAGACAAAUCUGCCACAAAGCUUGAGAGCAGCUUCGGAUGCAGAGGCGGCAGCCUUCGGUGGCGCGAUAGCGCCAACGUUAUGAACUAUGACACGCAAAACGCGUGCACCGUUGAAUGGAGUUUAUCAUG [U53G C103A C105G U130A], the figure is no more than -4.2.
As for GGAUCUUCUCGAUCUAACAAAUAAGACAAAUCUGCCACAAAGCUUGAGAGCAUCUUCGGAUGCAGAGGCGGCAGCCUUCGGUGGCGCGAUAGCGCCAACGUUCUCAACUAUGACACGCAAAACGCGUGCUCCGUUGAAUGGACUUUAUCAUG [A22U G143C], the figure is -1.09; as for GGAUCUUCUCGAUCUAACAAAAAAGACAAAUCUGGCACAAAGCUUGAGAGCAUCUUCAUUUGCAGAGGCGGCCGCCUUCGGUGGCGCGAUAGCGCCAACGUUCUCAACUAUGACAGGCAAAAAGCGUGCUCCGUUGAAUCGAGUUUAUCAUG [C35G G58A G59U A60U A73C C116G C123A G140C], no more than -4.2.
For GGAUCUUCUAGAUCUACCAAAAAAGACAAAUCUGCCACAAGGCUUGAGAGCAUGAUCGGAUGCAGAGGCGGCAGCCUUCGGUGGUGCGAUAGCGUCAACGUUCGCAACUAUGACACGCAAAACGCUUGCUCCGUUGAGUGGAGUUUAUCAUU [C10A A17C A41G C54G U55A C85U C95U U104G G126U A138G G152U], the “polymerase ribozyme fitness (log ratio)” value was no more than -4.2.
For the variant GGAACUUCUCGAUCUAACAAAAAAGACAAAUCUGCCACAAAGCUUGAGAGCAUCUUCGGAUGCAGAGGCGGCAGCCUUCGGUGGCGCGAUAACGCCAACGUUCUCAACUAUGACACGCAAAACGCGUGCUCCGUUGAAUGAAGUUUAUCAUG [U4A G92A G141A], the “polymerase ribozyme fitness (log ratio)” value was -3.96.
The result for GGAUCUUCUCGAUCUAACAAAAAAGACAAAUCUGCCACAAAGCUUGAGAGCAUCUUCGGAUGCAGAGGCGGCAGCCUUCGGUGGCGCGAUAGCGCCAAUGUUCUCAACUAUGACACGCAAAACGCAUGCUCCGUUGAAUGGAUUUUAUCAUG [C99U G126A G143U] reads -3.55; that for GGAUCUUCUCGAUCUAACAAAAAAGACAAAUCUGCCACAAAGCUUGAGAGCAUCUUCGGAUGCAGAGGCGGCAGCCUUCGGUGGCGCGAUAGUGCCACCGUUCUCAACUAUGACACGCAAAACGCGUGCUCCGUUGAAUGGAGUUUAUCAUG [C93U A98C], -0.981.
Take GGAUCUUCUCGAUCUAACAAAAAAGACAAAUCUGCCACAAAGCUUGGGAGCAUCUUCGGAUGCAGAGGCGGCAGCCUUCGGUGGCGCGAUAGCGCCAGCGUUCUCAACUAUGACGCGCAAAAGGCGUGCACCGUUGAAUGGAGUUUAUCAUG [A47G A98G A115G C123G U130A]: the “polymerase ribozyme fitness (log ratio)” value is -3.77.
As for GGAUCUUUUCGAUCUAACAAAAAAGACAAAUCUGCCACGAAGCUUGAGAGCAUCUUCGGAUGCAGAGGCGGCAGCCUUCGGUGGCUCGAUAGCGCCAACGUCCUCAACUAGGACACGCAAAACGCGUGCUCCGUUGAAUGGAGCUUAUCAUA [C8U A39G G86U U102C U111G U144C G152A], the figure is no more than -4.2; as for GGAUCUUCUCGAUCUAACAAAAAAGACAAUUCUGCCACAAAGCUUGAGAGCGUCUUCGGAUGCAGAUGCGGCAGCCUUCGGUGGCGCGAUAGCGCCAACGUUCUCAACUAUGACACGCAAAACGCGUGCUCUGUUGAAUGGAGUUUAUCAUG [A30U A52G G67U C132U], no more than -4.2.
As to GGAUCUUCUCGAUCUAACAAAAAAGACAAAUCUGCCACAAAGCUUGAGAGCAUCUUCGGAUGCAGAGGCGGCUGCCUUCGGUGCCGCGAUAGCGCCAACGUUCUCAACUAUGACAAGCAAAACGCGUGCUCCGUUGAAUGGAGUUUAUCAUG [A73U G84C C116A], the “polymerase ribozyme fitness (log ratio)” value was -2.63.
As for GGAUCUUCUCGAUCUAACAAAAAAGACAAAGCUGCCACAAAGCUUGAGAGCAUCUUAGGAUGCAGAGGCGGCAGCCUUCGGUGGCGCGAUAGCGCCAACGUUCUCAACUAUGACACGCAAAACGCGUGCUCCGUUAAAUAGAGUUAAUCAUG [U31G C57A G136A G140A U146A], the “polymerase ribozyme fitness (log ratio)” value was -3.1.
Regarding GGAUCUUCUCGAUCUAACAAAAAAGACAAAUCUGCCACACAGCUUGAGAGCAUCGUCGGAUGCAGAGGCGGCAGCCUUCGGUGCCGCGAUAGCGCUAACGUUUUCAACUAUGACACGUAAAACGCGUGCUCCGUUGAAUGGAGUUUAUCAUG [A40C U55G G84C C96U C103U C118U], the “polymerase ribozyme fitness (log ratio)” value is -3.51.
As to GGAUCUUCUCGAUCUAACAAAAAAGACAAAUCUGCCACAAAGCUUGAAAGCAUCUUCGGAUGCAGAGGCGGCAGCCUUCGGUGCCGCGAUAGCGCCAACCUUCUCAACUAUGACACGCAAAACGCGUGCUCCGUUGAAUGGAGUUUAUCAUG [G48A G84C G100C], the “polymerase ribozyme fitness (log ratio)” value is no more than -4.2.
